Reference: PMC8924211 (Nature Communications, 2022)
Where a chain is given by its changes, count along the chain named.

Assays:
Test in all cases: AlphaScreen or HTRF; saturation binding: HEK293 cells transfected with SNAP-tagged receptor (WT or mutant) and labelled with SNAP-Lumi4-Tb, incubated with increasing concentrations of galanin-A2 in the presence or absence of 100 uM unlabeled galanin, 1 h at room temperature; HTRF ratio 665 nm/620 nm
Settings in all cases: one partner purified
[1] = target: T1, N-terminal-SNAP-tagged GAL2R, wild type (human, UniProt O43603 1-387, Lumi4-Tb on the SNAP tag)
T1 construct: also called SNAP-GAL2R; GAL2R WT; source: HEK293, transfected, on cells; not shown: SNAP tag, N-terminal, kept
T1 sequence (looked up): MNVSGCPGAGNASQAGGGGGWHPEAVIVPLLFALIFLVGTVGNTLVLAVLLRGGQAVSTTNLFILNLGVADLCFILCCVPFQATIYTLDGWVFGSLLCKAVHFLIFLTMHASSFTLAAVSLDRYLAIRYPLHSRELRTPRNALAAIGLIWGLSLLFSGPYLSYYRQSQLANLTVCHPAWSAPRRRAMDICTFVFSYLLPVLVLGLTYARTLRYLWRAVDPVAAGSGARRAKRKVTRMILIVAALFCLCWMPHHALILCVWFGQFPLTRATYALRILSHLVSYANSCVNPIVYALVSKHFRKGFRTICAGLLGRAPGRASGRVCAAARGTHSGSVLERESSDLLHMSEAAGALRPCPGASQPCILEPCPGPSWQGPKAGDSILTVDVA

[2] = target: T2, SNAP-GAL2R V259^6.58A (human, UniProt O43603 1-387, V259^6.58A, Lumi4-Tb on the SNAP tag)
T2 construct: also called V259A; source: HEK293, transfected, on cells; not shown: SNAP tag, N-terminal, kept
T2 sequence (looked up): T1 sequence (looked up) with V259A

[3] = target: T3, SNAP-GAL2R R274^7.35A (human, UniProt O43603 1-387, R274^7.35A, Lumi4-Tb on the SNAP tag)
T3 construct: also called R274A; source: HEK293, transfected, on cells; not shown: SNAP tag, N-terminal, kept
T3 sequence (looked up): T1 sequence (looked up) with R274A

[4] = target: T4, SNAP-GAL2R W249^6.48A (human, UniProt O43603 1-387, W249^6.48A, Lumi4-Tb on the SNAP tag)
T4 construct: also called W249A; source: HEK293, transfected, on cells; not shown: SNAP tag, N-terminal, kept
T4 sequence (looked up): T1 sequence (looked up) with W249A

B1: galanin-A2 (full-length galanin labeled with the dye A2 on an additional cysteine at the C-terminal end) (peptide)
peptide: GWTLNSAGYLLGPHAVGNHRSFSDKNGLTSC
modifications: dye A2 on the additional C-terminal cysteine
notes: numbers count on: the mature protein; additional cysteine at the C-terminal end of the peptide, carries the dye A2; source: synthetic peptide (synthesized by Vazyme, China)
- Kd [1]: 21.7 nM
- Kd [2]: 180 nM
- Kd [3]: 553 nM
- Kd [4]: 23.3 nM
